Assay [1] addresses tubulin (α-tubulin) (mouse (endogenous in striatum)) (UniProt P68369). The assay can be described thus: co-IP.
The target of assay [2] is GABAA receptor (GABAAR β2/3 subunits) (mouse (endogenous in striatum)) (UniProt P63137). Nature of the assay: co-IP.

The results in this text go back to publication PMC3323696.

Sequence of UniProt P63137 (P63137 whole entry, looked up): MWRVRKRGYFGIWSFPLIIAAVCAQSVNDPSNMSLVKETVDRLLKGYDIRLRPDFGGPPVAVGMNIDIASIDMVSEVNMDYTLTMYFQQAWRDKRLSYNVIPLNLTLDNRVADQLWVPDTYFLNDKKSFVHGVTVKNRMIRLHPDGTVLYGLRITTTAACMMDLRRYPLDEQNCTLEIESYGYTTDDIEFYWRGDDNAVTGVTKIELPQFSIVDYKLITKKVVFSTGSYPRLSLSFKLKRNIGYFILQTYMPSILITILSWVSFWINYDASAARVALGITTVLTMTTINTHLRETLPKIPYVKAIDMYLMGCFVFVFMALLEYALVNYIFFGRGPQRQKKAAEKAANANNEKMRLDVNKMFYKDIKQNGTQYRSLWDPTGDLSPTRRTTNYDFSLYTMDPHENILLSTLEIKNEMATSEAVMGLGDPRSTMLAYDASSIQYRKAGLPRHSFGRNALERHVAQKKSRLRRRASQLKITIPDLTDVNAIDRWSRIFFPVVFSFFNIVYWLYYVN

Take “GABAA receptor (GABAAR β2/3 subunits) (from UniProt P63137 26-512; P63080 26-473)”: the co-precipitated amount in HD (N171-82Q) mice, % of WT mice in assay [1] is 65.3 % of WT. For “KIF5 heavy chain (from UniProt Q61768 1-963) (natural protein)”, the results for the co-precipitated amount in HD (N171-82Q) mice, % of WT mice in assay [1] and in assay [2] were 35.5 % of WT and 41.5 % of WT, respectively.

As for “tubulin (α-tubulin) (from UniProt P68369 1-451) (natural protein)”, the co-precipitated amount in HD (N171-82Q) mice, % of WT mice in assay [2] was 67.4 % of WT.

B1: huntingtin associated protein 1 (HAP1) (natural protein)
chain: MRPKEQVQSGAGDGTGSGDPAAGTPTTQPAVGPAPEPSAEPKPAPAQGTGSGQKSGSRTKTGSFCRSMIIGDSDAPWTRYVFQGPYGPRATGLGTGKAEGIWKTPAAYIGRRPGVSGPERAAFIRELQEALCPNPPPTKKITEDDVKVMLYLLEEKERDLNTAARIGQSLVKQNSVLMEENNKLETMLGSAREEILHLRKQVNLRDDLLQLYSDSDDDDDEEDEEDEEEGEEEEREGQRDQDQQHDHPYGAPKPHPKAETAHRCPQLETLQQKLRLLEEENDHLREEASHLDNLEDEEQMLILECVEQFSEASQQMAELSEVLVLRLEGYERQQKEITQLQAEITKLQQRCQSYGAQTEKLQQMLASEKGIHSESLRAGSYMQDYGSRPRDRQEDGKSHRQRSSMPAGSVTHYGYSVPLDALPSFPETLAEELRTSLRKFITDPAYFMERRDTHCREGRKKEQRAMPPPPAQDLKPPEDFEAPEELVPEEELGAIEEVGTAEDGQAEENEQASEETEAWEEVEPEVDETTRMNVVVSALEASGLGPSHLDMKYVLQQLSNWQDAHSKRQQKQKVVPKDSPTPQQQTNMGGGILEQQPRVPTQDSQRLEEDRATHSPSAREEEGPSGAT
Turning to B1, the co-precipitated amount in HD (N171-82Q) mice, % of WT mice in assay [2] was 42.9 % of WT.
